Experiments:
Test in all cases: SPR (Biacore), fusion protein captured on chip, human apical domain TfR injected, steady-state fit
ETV:GAA Fusion 1 = molecular target: T1, ETV:GAA Fusion 1 (human, UniProt P0DOX5 223-449 = IgG part)
T1 construct: Heterodimer of the two chains; also called N-terminal monozyme GAA-Fc fusion protein
Experimental: (§1) To determine whether GAA-Fc fusion proteins with engineered TfR binding affects the ability of the modified Fc domain to interact with human TfR, the affinity of ETV:GAA fusion proteins (Example 1) for human TfR was assessed using a Biacore™ surface plasmon resonance assay. Biacore™ Series S CM5 sensor chips were immobilized with anti-human Fab (human Fab capture kit from GE Healthcare). Five (5) μg/mL of the GAA-Fc fusion proteins were captured for 1 minute on each flow cell and serial 3-fold dilutions of human apical domain TfR were injected at a flow rate of 30 μL/min. Each sample was analyzed with a 3-minute association and a 3-minute dissociation. After each injection, the chip was regenerated using 10 mM glycine-HCl (pH 2.1). Binding response was corrected by subtracting the RU from a flow cell capturing an irrelevant IgG at similar density. Steady-state affinities were obtained by fitting the response at equilibrium against the concentration using Biacore™ T200 Evaluation Software v3.1.

ETV:GAA Fusion 3 = molecular target: T2, ETV:GAA Fusion 3 (human, UniProt P0DOX5 223-449 = IgG part)
T2 construct: Heterodimer of the two chains; also called C-terminal monozyme GAA-Fc fusion protein
Experimental: as §1

ETV:GAA Fusion 4 = molecular target: T3, ETV:GAA Fusion 4 (human, UniProt P0DOX5 223-449 = IgG part)
T3 construct: Heterodimer of the two chains; also called C-terminal monozyme GAA-Fc fusion protein
Experimental: as §1

ETV:GAA Fusion 2 = molecular target: T4, ETV:GAA Fusion 2 (human, UniProt P0DOX5 223-449 = IgG part)
T4 construct: Heterodimer of the two chains; also called N-terminal monozyme GAA-Fc fusion protein
Experimental: as §1

B1: human apical domain TfR (receptor)
chain: NSVIIVDKNGRLVYLVENPGGYVAYSKAATVTGKLVHANFGTKKDFEDLYTPVNGSIVIVRAGKITFAEKVANAESLNAIGVLIYMDQTKFPIVNAELSFFGHAHLGTGDPYTPGFPSFNHTQFPPSRSSGLPNIPVQTISRAAAEKLFGNMEGDCPSDWKTDSTCRMVTSESKNVKLTVS
notes: also called human TfR; huTfR
Which results are given for B1?
Kd (ETV:GAA Fusion 1): 251 nM; Kd (ETV:GAA Fusion 3): 282 nM; Kd (ETV:GAA Fusion 4): 271 nM; Kd (ETV:GAA Fusion 2): 260 nM

From patent publication US20250250555A1 (DENALI THERAPEUTICS, published 2025)
